Patent US11224662B2, “Methods and therapeutics comprising ligand-targeted ELPs” (priority 2012, dated 2022)

What was measured:
[1] = Temperature-dependent optical density (turbidity) of ELP fusion peptides; type: physicochemical; conditions: 25 μM in PBS; for Transition Temperature T1: first phase transition; for Transition Temperature T1 / Transition Temperature T2: optical density; for Transition Temperature T2: second phase transition
Method: (§1) To explore the temperature-dependent phase behavior of the ELPs, optical density and hydrodynamic radius were observed over a range of temperatures. Knob-S96, S48148 and knob-S48148 were diluted to 25 μM in PBS on ice and the absorbance at 350 nm was monitored with a DU800 UV-Vis spectrophotometer (Beckman Coulter, Brea, Calif.) at a temperature gradient of 1° C./minute. […] Then 90 μL sample of was transferred into a 384 well microplate and covered with 20 μL mineral oil. The microplate and mineral oil were pre-chilled at 4° C. at least for 1 hour. The microplate was centrifuged at 4° C. to remove air bubbles from samples before and after addition of mineral oil. Then the sample was measured in a DynaPro plate reader (Wyatt Inc., Santa Barbara, Calif.) at temperature intervals of 1° C. The resulting hydrodynamic radii were collected and analyzed by Dynamics (Wyatt Inc., Santa Barbara, Calif.).

[2] = Dynamic light scattering of ELP nanoparticles; type: physicochemical
Method: as §1

[3] = system: transformed mouse hepatocytes; assay: Live cell uptake of rhodamine-conjugated ELP/knob-ELP in hepatocytes; type: cell-based; conditions: 10 μM rhodamine-labeled, 30 minutes at 37° C., confocal microscopy, LYSOTRACKER green
Method: To track cellular uptake, the ELPs S48148 and knob-S48148 were conjugated with a detectable label, NHS-Rhodamine (Thermo Fisher Scientific Inc, Rockford, Ill.) via covalent modification of primary amines at the amino end of the peptide. For S48148, the only available amine is at the amino terminus; however, knob-S48148 has an additional 11 lysine residues that may be sites of modification. The conjugation was performed in 100 mM borate buffer for 2 hours at 4° C., and the conjugated ELP was separated by size exclusion chromatography on a PD10 desalting column (GE Healthcare, Piscataway, N.J.).
To observe uptake into mouse hepatocytes, cells were cultured on 35 mm glass coverslip-bottomed dishes with medium [(DMEM (4.5 g/L) containing 10% fetal bovine serum, g/ml insulin, and 0.02 [μg/ml epidermal growth factor]. Uptake studies were conducted when hepatocytes reached 70% confluence. After washing with warm fresh medium, hepatocytes were cultured in medium containing 10 μM of either S48148 or knob-S48148 conjugated with rhodamine, and 75 nM LYSOTRACKER® green. After 30 minutes incubation at 37° C., the cells were rinsed with warm fresh medium to remove the free knob-ELP/ELP in the medium. Next cells were incubated with 75 nM LYSOTRACKER® green in a 37° C. incubation chamber. […]

[4] = target: T1, coxsackie adenovirus receptor (CAR) (Mus musculus, UniProt P97792); assay: Competitive binding and uptake with anti-mouse CAR antibody in hepatocytes; type: cell-based; conditions: 20 μg/mL anti-mouse CAR antibody 30 minutes at 37° C., then 10 μM rhodamine-conjugated knob-S48I48
T1 construct: This study was carried out in transformed mouse hepatocytes because of the high expression of CAR; endogenous in cells; host or cells: transformed mouse hepatocyte cell line
T1 sequence (P97792 20-365): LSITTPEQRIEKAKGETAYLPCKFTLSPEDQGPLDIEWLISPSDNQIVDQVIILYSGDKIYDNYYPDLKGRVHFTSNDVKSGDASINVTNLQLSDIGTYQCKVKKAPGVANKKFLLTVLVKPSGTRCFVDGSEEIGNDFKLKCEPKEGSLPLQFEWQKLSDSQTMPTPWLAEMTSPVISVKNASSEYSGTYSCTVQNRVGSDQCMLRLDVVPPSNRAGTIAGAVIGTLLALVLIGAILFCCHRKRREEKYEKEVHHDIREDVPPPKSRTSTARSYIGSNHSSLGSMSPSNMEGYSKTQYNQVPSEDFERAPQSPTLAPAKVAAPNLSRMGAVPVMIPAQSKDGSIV
Method: After confirming that the goat anti-mouse CAR antibody has a high affinity with the mouse hepatocytes, the anti-mouse CAR antibody (0.2 mg/mL) was diluted with warm medium 10-fold and incubated with the hepatocytes for 30 minutes at 37° C. Knob-S48148 conjugated with rhodamine was then added to the medium at a concentration of 10 μM. After 30 minutes incubation with knob-S48148 and 75 nM LYSOTRACKER® green, the hepatocytes were rinsed, then incubated in fresh warm medium with 75 nM LYSOTRACKER® green and imaged as described above.

[5] = system: lacrimal gland acinar cells (LGACs); assay: Suppression of transcytosis by Myosin Vb tail overexpression in LGACs; type: cell-based, rabbit; conditions: 30 μM Cy5-conjugated, 60 minutes at 37° C.
Method: To obtain the indication of lumen area of LGACs, the cells were also pre-infected with Adenovirus EGFP-actin and helper virus at a 37° C. incubator with 5% CO2 overnight. To avoid the clash of fluorescence colours, the knob-S48148 used in transcytosis inhibition was conjugated with Cy5. The LGACs were grown on 35 mm glass-bottomed dishes for two days. Adenovirus EGFP-actin and helper virus with or without adenovirus mCherry Myosin Vb tail were added into dishes and cultured overnight. After waiting for expression of fluorescence, confocal microscopy was used to make sure adenovirus mCherry-myosin Vb tail and adenovirus EGFP-actin grow in LGACs. On the third day, knob-S48148 conjugated with Cy5 was then mixed with the cold medium at a concentration of 30 μM, warmed to 37° C. and then added into dishes. After 60 minutes incubation in a 37° C. incubator with 5% CO2, LGACs were thoroughly rinsed with fresh warm medium then immediately imaged under a Zeiss LSM 510 Meta confocal microscope system, which is equipped with argon and red and green He—Ne lasers and mounted on a vibration-free table. All images were captured under the confocal microscope and processed using ImageJ (NIH, USA).

[6] = system: LG of BALB/c mice; assay: In vivo retention in the lacrimal gland after intra-lacrimal gland injection; set-up: species or system mouse; conditions: 5 μL of 50 μM rhodamine-labelled, 1 h, compared with untargeted S48I48
Method: Twelve-week-old male BALB/c mice were administered, by intra-lacrimal gland injection, 5 μL of 50 μM rhodamine-labelled S48148 or rhodamine-labelled knob-S48148 (red) combined with 50 μg CF-dextran (10 kD, green). After 1 h, mice were euthanized and the glands were retrieved, embedded into the O.C.T. compound (Tissue-Tek), and frozen on dry ice. The frozen tissue blocks were cut into 10 μm thick sections and imaged using confocal fluorescence microscopy. The white arrows indicate endocytosed S48148 or knob-S48148 nanoparticles. The bar represents 10 μm. […] For this experiment, the mice were euthanatized by intraperitoneal injection with 55 mg ketamine and 14 mg xylazine per kilogram of body weight, followed by cervical dislocation. 5 μL of 50 μM rhodamine labelled knob-S48148 or S48148 was injected into the lacrimal glands of mice. After 60 minutes, the tear was collected from one eye of mouse by adding Carbachol into the related lacrimal gland. For another gland, it was removed after the tear collection was done at the first eye. After removal, LGs were snap frozen and stored on the dry ice. The frozen glands were cut into 10 μm thick sections and mounted on glass slides. Then the sections were examined with a confocal laser scanning microscope (LSM) at excitation wavelengths of 488 and 534 nm.

B1: knob-G(VPGSG)48(VPGIG)48Y (SEQ ID. NO: 10) (protein)
chain: GVPGSGVPGSGVPGSGVPGSGVPGSGVPGSGVPGSGVPGSGVPGSGVPGSGVPGSGVPGSGVPGSGVPGSGVPGSGVPGSGVPGSGVPGSGVPGSGVPGSGVPGSGVPGSGVPGSGVPGSGVPGSGVPGSGVPGSGVPGSGVPGSGVPGSGVPGSGVPGSGVPGSGVPGSGVPGSGVPGSGVPGSGVPGSGVPGSGVPGSGVPGSGVPGSGVPGSGVPGSGVPGSGVPGSGVPGSGVPGSGVPGIGVPGIGVPGIGVPGIGVPGIGVPGIGVPGIGVPGIGVPGIGVPGIGVPGIGVPGIGVPGIGVPGIGVPGIGVPGIGVPGIGVPGIGVPGIGVPGIGVPGIGVPGIGVPGIGVPGIGVPGIGVPGIGVPGIGVPGIGVPGIGVPGIGVPGIGVPGIGVPGIGVPGIGVPGIGVPGIGVPGIGVPGIGVPGIGVPGIGVPGIGVPGIGVPGIGVPGIGVPGIGVPGIGVPGIGVPGIGY
notes: assembles into nanoparticles
With B1 as the molecule, how does the “Transition Temperature T1” value [1] read?
Its value is 19.5 °C.

What about the “Transition Temperature T1” value ([1]; listed as Knob-S48148) of the same molecule?
Its value is “around 19.5 °C”.

What about the Critical aggregation temperature ([1]; optical density at 350 nm by UV-Vis spectrophotometer) of the same molecule?
Its Critical aggregation temperature is 19.5 °C.

And the “Transition Temperature T2” value [1]?
Its value is 60 °C.

And the “Transition Temperature T2” value ([1]; listed as Knob-S48148)?
Its value is “around 60 °C”.

What about the “size by dynamic light scattering (BSA; unimers of the ELPs)” value ([2]; BSA stable from 10 to 37° C., ELPs as unimers below assembly temperature) of the same molecule?
Its value is “around 4 nm”.

What about the “critical nanoparticle temperature (CNT)” value ([2]; dynamic light scattering) of the same molecule?
Its value is 19.5 °C.

What about the “Hydrodynamic radius (nm) at 37° C.” value ([2]; dynamic light scattering, 25 μM in PBS, 37° C.) of the same molecule?
The value was 21.7 nm.

What about the “hydrodynamic diameter of nanoparticles” value ([2]; dynamic light scattering, self-assembled nanoparticles) of the same molecule?
The value was “around 40 nm”.

And the “cellular uptake / fluorescence localisation” value [3]?
Its value is “significant cellular uptake”.

What about the “intracellular knob-S48I48 fluorescence after anti-mouse CAR antibody pre-incubation” value [4] of the same molecule?
The value was “reduced the intracellular punctate fluorescence”.

And the “transcytosis with overexpressed mCherry myosin Vb tail” value [5]?
Its value is “significantly reduce the transcytosis”.

What about the “retention in lacrimal gland (accumulation, surface association, internalization)” value [6] of the same molecule?
Its value is “stronger apical-membrane/luminal accumulation, surface association, and internalization”.
